The record followed here is FireProtDB (doi:10.1110/ps.8.12.2645).

The conditions of this series: Saccharomyces cerevisiae (strain ATCC 204508 / S288c), pH 6, Thermal, DSC, Sodium phosphate 0.1 M, reversible: yes.

Chain of Cytochrome c isoform 1 F88Y, P00044 (P00044 whole entry F88Y, canonical isoform): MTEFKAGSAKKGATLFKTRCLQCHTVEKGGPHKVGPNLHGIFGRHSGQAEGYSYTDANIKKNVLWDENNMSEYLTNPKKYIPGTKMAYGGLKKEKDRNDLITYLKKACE
Chain of Cytochrome c isoform 1 wild type, P00044 (P00044 whole entry, canonical isoform): as the sequence (P00044 whole entry F88Y, canonical isoform) above, with Y88F counted along it
Chain of Cytochrome c isoform 1 F88Y|L91A, P00044 F88Y L91A (P00044 whole entry F88Y/L91A, canonical isoform): as the sequence (P00044 whole entry F88Y, canonical isoform) above, with L91A counted along it
Chain of Cytochrome c isoform 1 L91A, P00044 (P00044 whole entry L91A, canonical isoform): as the sequence (P00044 whole entry F88Y, canonical isoform) above, with Y88F, L91A counted along it

In the case of Cytochrome c isoform 1 F88Y, P00044, for the setting “25 °C, structure 1YCC”, the “ddG of mutation (higher = less stable)” value was 0.7 kcal/mol, the “heat capacity change of unfolding” value was found to be 0.58 kcal/mol/K, the “unfolding enthalpy (calorimetric)” value is 27 kcal/mol and the unfolding free energy stood at 4.8 kcal/mol. In addition, for the setting “60 °C, structure 1YCC”, the “unfolding enthalpy (calorimetric)” value is 83 kcal/mol and the unfolding free energy is 1.01 kcal/mol. In addition, where the note is “structure 1YCC”, the Tm (commonly the temperature at the midpoint of the melting transition) was 55.8 °C, the “heat capacity change of unfolding” value came to 0.58 kcal/mol/K, the “unfolding enthalpy (calorimetric)” value is 76 kcal/mol and the “unfolding enthalpy (van 't Hoff)” value was found to be 103 kcal/mol.

As to “Cytochrome c isoform 1 F88Y|L91A, P00044 F88Y L91A”, the “unfolding enthalpy (calorimetric)” value (60 °C, structure 1YCC) is 80 kcal/mol. In addition, under “structure 1YCC”, the Tm was found to be 45.6 °C, the “heat capacity change of unfolding” value turned out to be 0.31 kcal/mol/K, the “unfolding enthalpy (calorimetric)” value is 57 kcal/mol and the “unfolding enthalpy (van 't Hoff)” value was found to be 92 kcal/mol.

Consider Cytochrome c isoform 1 L91A, P00044, for which, where the note is “25 °C, structure 1YCC”, the “ddG of mutation (higher = less stable)” value amounted to 2.8 kcal/mol, the “heat capacity change of unfolding” value amounted to 0.45 kcal/mol/K, the “unfolding enthalpy (calorimetric)” value worked out at 23 kcal/mol and the unfolding free energy was 2.7 kcal/mol. For the same substance, for the setting “60 °C, structure 1YCC”, the “unfolding enthalpy (calorimetric)” value was 79 kcal/mol and the unfolding free energy amounted to 2.9 kcal/mol. For the setting “structure 1YCC”, the Tm is 46.3 °C, the “heat capacity change of unfolding” value was found to be 0.45 kcal/mol/K, the “unfolding enthalpy (calorimetric)” value worked out at 57 kcal/mol and the “unfolding enthalpy (van 't Hoff)” value was 88 kcal/mol.

With “Cytochrome c isoform 1 wild type, P00044”, the Tm turned out to be 60 °C, the “heat capacity change of unfolding” value worked out at 0.26 kcal/mol/K, the “unfolding enthalpy (calorimetric)” value was 81 kcal/mol and the “unfolding enthalpy (van 't Hoff)” value came out at 110 kcal/mol. Also, for the setting “25 °C”, the “heat capacity change of unfolding” value amounted to 0.26 kcal/mol/K, the “unfolding enthalpy (calorimetric)” value stood at 26 kcal/mol and the unfolding free energy amounted to 5.5 kcal/mol. For the setting “60 °C”, the “unfolding enthalpy (calorimetric)” value amounted to 81 kcal/mol.
